For one substance, Kd results are on record in patent US20210024596A1.

pKd: −log10 of the molar value.

The target in experiment [1] is histone H4 (human) (UniProt P62805). Description: SPR kinetic assay, ligand H4 captured on the chip, analyte prothrombin fragment 1 at 1.0-6.0 µM.
In experiment [2] the target is histone H3 (human) (UniProt P68431). Description: SPR kinetic assay, ligand H3 captured on the chip, analyte prothrombin fragment 1 at 1.0-6.0 µM. In general terms: SPR reads the build-up and loss of mass on a sensor chip optically.

One may read the pKd as the negative decadic logarithm of the Kd, by convention in mol/L. A higher pKd goes with a small Kd. As to “recombinant human prothrombin fragment 1 (from UniProt P00734 44-198)”, the negative-log Kd (pKd) in experiment [1] was 6.05; in experiment [2], 5.63.
